The source of these data is patent US7470668B2, “Method of use of specific natriuretic peptide receptor c ligands, transgenic non-human mammals expressing specific natriuretic peptide receptor c antagonists and cells thereof” (Enobia Pharma Inc., priority 2005, dated 2008).

The target of one test is T1, NPR-C (Homo sapiens, UniProt P17342).
T1 construct: expressed in transfected cells; host or cells: HEK293, transient, pCDNA1.1 (CMV promoter)
T1 sequence (P17342 27-541): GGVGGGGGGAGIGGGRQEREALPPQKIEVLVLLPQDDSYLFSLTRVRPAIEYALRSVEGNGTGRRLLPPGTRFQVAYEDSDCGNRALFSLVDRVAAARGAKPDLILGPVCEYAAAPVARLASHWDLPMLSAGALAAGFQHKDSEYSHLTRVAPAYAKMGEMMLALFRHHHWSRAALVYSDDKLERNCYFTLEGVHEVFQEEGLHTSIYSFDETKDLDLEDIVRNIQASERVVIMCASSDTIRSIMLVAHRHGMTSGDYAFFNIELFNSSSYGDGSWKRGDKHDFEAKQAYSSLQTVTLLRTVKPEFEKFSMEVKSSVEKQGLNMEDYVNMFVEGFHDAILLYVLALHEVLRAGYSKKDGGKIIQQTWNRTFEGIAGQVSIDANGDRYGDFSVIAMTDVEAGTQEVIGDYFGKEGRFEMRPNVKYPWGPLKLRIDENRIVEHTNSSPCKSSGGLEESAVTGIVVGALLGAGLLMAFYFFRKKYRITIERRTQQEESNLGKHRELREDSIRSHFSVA
As to the kind of experiment: Competition of PLAP-Ostn binding on NPR-C over-expressing cells. The following applies: ~30 nM PLAP-Ostn, NPR-C transfected cells; read-out: concentration competing off 50% of the binding of PLAP-mOstn. The source says: (§1) The expression plasmid for rat GC-A containing the entire coding sequence cloned between the NheI-KpnI sites of CMV-driven pBK plasmid (Stratagene, La Jolla, Calif.) was kindly provided by Dr. A. De Léan (Département de Pharmacologie, Université de Montréal). The human NPR-C and GC-B coding sequences were amplified by RT-PCR from human embryonic kidney polyA RNA (Clontech, Palo Alto, Calif.) with the following primer pairs: NPR-C-5′-[…]-3′(forward) (SEQ ID NO: 74) and 5′-[…]-3′ (SEQ ID NO: 75) (reverse); GC-B-5′-[…]-3′ (SEQ ID NO: 76) (forward) and 5′-[…]-3′ (SEQ ID NO: 77) (reverse). The resulting PCR products were then cloned downstream of the CMV-promoter into the pCDNA1.1 plasmid (Invitrogen, Burlington, ON, Canada). All constructs were validated by DNA sequencing.

The next test concerns the target T2, rat GC-A (Rattus norvegicus, UniProt P18910).
T2 construct: expressed in transfected cells; host or cells: HEK293, transient, CMV-driven pBK plasmid (gift of Dr. A. De Léan)
T2 sequence (P18910 29-1057): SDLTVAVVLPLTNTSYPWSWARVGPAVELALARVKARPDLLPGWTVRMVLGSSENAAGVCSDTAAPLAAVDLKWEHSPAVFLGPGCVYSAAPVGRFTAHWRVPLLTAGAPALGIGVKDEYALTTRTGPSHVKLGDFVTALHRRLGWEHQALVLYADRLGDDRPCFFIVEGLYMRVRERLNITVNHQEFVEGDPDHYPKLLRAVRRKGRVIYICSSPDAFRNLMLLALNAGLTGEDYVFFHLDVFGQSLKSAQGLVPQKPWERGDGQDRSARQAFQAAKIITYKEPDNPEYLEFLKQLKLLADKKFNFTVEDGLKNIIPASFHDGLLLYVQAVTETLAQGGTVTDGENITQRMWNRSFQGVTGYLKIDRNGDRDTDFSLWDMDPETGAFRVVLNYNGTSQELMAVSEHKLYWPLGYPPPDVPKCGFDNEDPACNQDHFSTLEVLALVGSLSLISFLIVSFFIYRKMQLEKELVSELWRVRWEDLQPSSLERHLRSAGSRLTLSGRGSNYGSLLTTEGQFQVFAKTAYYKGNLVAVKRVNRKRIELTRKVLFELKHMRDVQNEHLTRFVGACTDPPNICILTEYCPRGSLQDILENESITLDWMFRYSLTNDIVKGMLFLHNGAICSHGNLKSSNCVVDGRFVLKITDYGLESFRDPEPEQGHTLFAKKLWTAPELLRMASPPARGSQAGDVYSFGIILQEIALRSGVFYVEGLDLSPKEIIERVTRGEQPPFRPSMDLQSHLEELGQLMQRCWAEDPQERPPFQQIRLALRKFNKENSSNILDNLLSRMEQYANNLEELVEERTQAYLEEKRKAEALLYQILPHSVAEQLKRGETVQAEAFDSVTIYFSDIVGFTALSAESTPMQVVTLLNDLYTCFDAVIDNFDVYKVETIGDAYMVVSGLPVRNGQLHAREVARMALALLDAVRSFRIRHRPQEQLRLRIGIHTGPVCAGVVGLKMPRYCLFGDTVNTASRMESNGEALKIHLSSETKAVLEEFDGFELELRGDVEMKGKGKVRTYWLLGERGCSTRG
As to the kind of experiment: PLAP-Ostn binding to GC-A transfected HEK293 cells. The settings on record: cells overexpressing GC-A (not shown).
Description: as §1
(§2) To analyze the potential binding of Ostn to natriuretic receptors, a fusion protein (PLAP-Ostn) (FIG. 6) was generated as described above. This fusion protein comprised an N-terminal secreted placental alkaline phosphatase (PLAP) moiety linked to mature mouse Ostn (residues 29-130) (SEQ ID NO: 62). Conditioned media containing PLAP-mOstn was used to assess Ostn binding on transiently transfected cells.
(§3) Expression vectors for the coding sequence of GC-A, GC-B and NPR-C were constructed, transfected into human embryonic kidney (HEK) 293 cells and the cells incubated with either 37 nM PLAP or the PLAP-Ostn fusion. […]

The target of another test is T3, human GC-B (Homo sapiens, UniProt P20594).
T3 construct: expressed in transfected cells; host or cells: HEK293, transient, pCDNA1.1 (CMV promoter)
T3 sequence (P20594 23-1047): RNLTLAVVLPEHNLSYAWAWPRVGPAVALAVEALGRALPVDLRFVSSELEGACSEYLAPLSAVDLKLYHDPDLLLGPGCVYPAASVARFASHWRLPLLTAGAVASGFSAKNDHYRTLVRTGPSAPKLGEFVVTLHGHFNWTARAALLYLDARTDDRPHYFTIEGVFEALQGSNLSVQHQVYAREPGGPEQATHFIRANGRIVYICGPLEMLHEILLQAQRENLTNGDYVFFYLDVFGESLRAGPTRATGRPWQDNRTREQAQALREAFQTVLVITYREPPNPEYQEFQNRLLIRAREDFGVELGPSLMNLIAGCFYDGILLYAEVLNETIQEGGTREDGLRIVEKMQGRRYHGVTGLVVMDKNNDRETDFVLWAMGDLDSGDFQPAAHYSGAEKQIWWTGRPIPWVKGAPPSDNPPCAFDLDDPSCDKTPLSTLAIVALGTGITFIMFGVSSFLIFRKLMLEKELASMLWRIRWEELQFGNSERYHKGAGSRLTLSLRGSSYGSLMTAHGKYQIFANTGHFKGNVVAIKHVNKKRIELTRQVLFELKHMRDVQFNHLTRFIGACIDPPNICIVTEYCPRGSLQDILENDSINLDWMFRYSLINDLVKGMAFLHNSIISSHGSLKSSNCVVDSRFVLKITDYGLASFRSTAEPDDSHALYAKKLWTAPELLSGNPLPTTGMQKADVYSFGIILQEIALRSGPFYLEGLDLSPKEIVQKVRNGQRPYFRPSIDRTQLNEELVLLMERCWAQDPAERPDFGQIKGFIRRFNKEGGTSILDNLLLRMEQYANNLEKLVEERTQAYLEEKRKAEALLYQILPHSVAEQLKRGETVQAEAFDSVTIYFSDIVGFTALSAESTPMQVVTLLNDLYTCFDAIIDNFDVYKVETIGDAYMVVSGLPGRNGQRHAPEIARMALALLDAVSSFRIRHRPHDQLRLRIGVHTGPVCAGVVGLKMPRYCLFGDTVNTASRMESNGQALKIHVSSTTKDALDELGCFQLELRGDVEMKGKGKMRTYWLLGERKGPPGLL
The test is described as follows: PLAP-Ostn binding to GC-B transfected HEK293 cells. The following applies: cells overexpressing GC-B.
Description: as §1, §2, §3

No end group written: not given here.

On to “YDHSKKRFGIPMDRIGRNRLSNSR-NH2 [Ostn[107-129]]”, for which the IC50 on NPR-C fell in the range of 1 to 10 nM.

B1: PLAP-mOstn: fusion protein: N-terminal secreted placental alkaline phosphatase moiety linked to mature mouse Ostn residues 29-130 (SEQ ID NO: 70) (protein)
chain: DAAQPARRARRTYEAYVRSSGIIPVEEENPDFWNREAAEALGAAKKLQPAQTAAKNLIIFLGDGMGVSTVTAARILKGQKKDKLGPEIPLAMDRFPYVALSKTYNVDKHVPDSGATATAYLCGVKGNFQTIGLSAAARFNQCNTTRGNEVISVMNRAKKAGKSVGVVTTTRVQHASPAGTYAHTVNRNWYSDADVPASARQEGCQDIATQLISNMDIDVILGGGRKYMFPMGTPDPEYPDDYSQGGTRLDGKNLVQEWLAKRQGARYVWNRTELMQASLDPSVTHLMGLFEPGDMKYEIHRDSTLDPSLMEMTEAALRLLSRNPRGFFLFVEGGRIDHGHHESRAYRALTETIMFDDAIERAGQLTSEEDTLSLVTADHSHVFSFGGYPLRGSSIFGLAPGKARDRKAYTVLLYGNGPGYVLKDGARPDVTESESGSPEYRQQSAVPLDEETHAGEDVAVFARGPQAHLVHGVQEQTFIAHVMAFAACLEPYTACDLAPPAGTTDAAHPGYLDLASQEFGTASLQSPPTAREEKSATELSAKLLRLDDLVSLENDVFETKKKRSFSGFGSPLDRLSAGSVEHRGKQRKAVDHSKKRFGIPMDRIGRNRLSSSRG
Consider B1, for which the specific binding entry in the test with rat GC-A and with human GC-B was “No specific binding” throughout.
